# B1: TPR t1 (parent)
# chain: GACCAAUCUGCCCUCAGAGCUCGAGAACAUCUUCGGAUGCAGAGGAGGCAGGCUUCGGUGGCGCGAUAGCGCCAACGUCCUCAACCUCCAAUGCAUCCCACCACAUGAUGAUGCCUGAAGAGCCUUGGUUUUUUG
# Variants of: B1
# Assay: polymerase ribozyme fitness, log enrichment relative to wild type (log ratio); higher = more active; in vitro selection for triplet polymerase activity
# How it was run: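 Mutant libraries for each subunit of a heterodimeric triplet polymerase ribozyme were made by PCR and then transcribed. Each library underwent one round of in vitro selection in triplicate: annealing with a biotinylated primer, the partner subunit and triplets, frozen incubation at −7 °C, gel excision of extended constructs, streptavidin-bead capture and RT-PCR. Input and output libraries were Illumina-sequenced, and only genotypes with ≥10 input reads and ≥1 read per output were kept. Fitness is the logarithm, base 2, of genotype enrichment over wild-type enrichment, computed from inverse-variance-weighted replicate averages.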
row,Variant,polymerase ribozyme fitness (log ratio)
1,GACCAAUCUGCACUCAGAGCUCAAGAACAUCUUCGGAUGCAGAGGAGGCAGGCUUCGGUGGCGCGAUAGCGCCAACUUCCUCAACCUCCAAUGCAUCCCACCACAUGAUGAUGCCUGAGGAGCCUUGGUUUUUUG [C12A G23A G77U A119G],-5.67
2,GACCAAUCUGCACUCAGAGCUCGAGAACAUCUUCGGAUGCAGAGUAGGCAGGCUUUGGUGGCGCGAUAGCGCCAACGACCUCAACCUCCAAUGCAUCCCACCACAUGAUGAUGCCUGAAGAGCCUUGGUUUUUUG [C12A G45U C56U U78A],-1.36
3,GACCAAUCUGCACUCAGAGCUCGAGAACAUCUUCGUAUGCAGAGGAGGCAGGCUUCGGUGGCACGAUAGCGCCAACGUCCUCAACCUCCAAUGCAUCCCACCACAUGAUGAUGCCUGAAGAGCCUUGGUUUUUUG [C12A G36U G63A],-2.46
4,GACCAAUCUGCACUCAGAGCUCGAGAACAUCUUCGGAUGCAGAGGAGGCAGGCUUCGGUGGCGCGAUAGCGCCAACGUCCUCAACCUCCAAUGCAUCCCACCACAUGAUGAUGUCUGAAGAGCCUUGGUUUUUUG [C12A C114U],-1.85
5,GACCAAUCUGCACUCAGAGCUCGAGAACAUCUUCGGAUGCAGAGGAGGCAGGCUUCGGUGGCGCGAUAGCGCCAACGUCCUCAACCUCCAAUGCAUCCCACCACAUGAUGAUGACUGAAGAGCCUUGGUUUUUUG [C12A C114A],-1.3
6,GACCAAUCUGCACUCAGAGCUCGAGAACAUCUUCGGAUUCAGAGGAGGCAGGCUUCGGUGGCGCGAUAGCGCCAACGUCCUCAACCUCCAAUGCAUCCCACCACAUGAUGAUGCCUAAAGAGCCUUGGUUUUUUG [C12A G39U G117A],-2.74
7,GACCAAUCUGCACUCAGAGCUCGAGAACAUCUUCGGAUGCAGAGUAGGCAGGCUUCGGUGGCGCGAUAGCGCCAACGUCCUCAACCUCCAAUGCAUCCCACCACAUGAUGAUGCCUGAAGAGCCUUGGUUUUUUG [C12A G45U],-1.63
8,GACCAAUCUGCACUCAGAGCUCGAGAACAUCUUCGGAUGCAGAGUAGGCAGGCUUCGCUGGCGCGAUAGCGCCAACGUCCUCAACCUCCAAUGCAUCUCAACACAUGAUGAUGCCUGAAGAGCCUUGGUUUUUUG [C12A G45U G58C C98U C101A],-3.82
9,GACCAAUCUGCACUCAGAGCUCGAGAACAUCUUCGUAUGCAGAGGAGGCAGGCUUCGGUGGCGUGAUAGCGCCAACGUCCUCGACCUCCAAUGCAUCCCACCACAUGAUGAUACCUGAAGAGCCUUGGUUUUUUG [C12A G36U C64U A83G G113A],-4.18
10,GACCAAUCUGCACUCAGAGCUCGAGAACAUCUUCGGAUGCAGAGGAAGCAGGCUUCGGUGGCGCGAUAGCGCCAACGUCCUCAACCUCCAAUGCAUCCCACCACAUGAUGAUGCCUGAAGAGCCUUGGUUUUUUG [C12A G47A],-1.98
11,GACCAAUCUGCACUCAGAGCUCGAGAACAUCUUCGGAUGCAGAGGAUGCAGGCUUCGGUGGCGCGAUAGCGCCAACGUCCUCAACCUCCAAUGCAUCCCACCACAUGAUGAUGCCUGAAGAGCCUUGGUUUUUUG [C12A G47U],-2.48
12,GACCAAUCUGCACUCAGAUCUCUAGAACAUCUUCGGAUGCAGAGGAAGCAGCCUUCGGUGGCGCGAUAUCGCCAACGUCCUCAACCUCCAAUGCAUCCCACCACAUGAUCAUGCCUGAAGAGCCUUGGUUUUUUG [C12A G19U G23U G47A G52C G69U G110C],-7.34
13,GACCAAUCUGCACUCAGAGCUCGAGAACAUCUUCGGAUGCAGAGGACGCAGGCUUCGGUGGCGCGAUAGUGCCAACGUCCUCAACCUCCAAUGCAUCCCACCACAUGAUGAUGCCUGAACAGCCUUGGUUUUUUG [C12A G47C C70U G120C],-1.04
14,GACCAAUCUGCACUCAGAGCUCGAGAACAUCUUCGGAUGCAAAGGAGGCAGGCUUCGGUGGCGCGAUAGUGCCAACGUCCUCAACCUCCAAUGCAACCCACCACAUGAUGAUGCCUGAAGAGCCUUGGUUUUUUC [C12A G42A C70U U96A G135C],-4.85
15,GACCAAUCUGCACUCAGAGCUCGAGAACAUCUUCGGAUGCAGAGGAGGCAGGCUUCGGUGGCGCGAUAGCGCCAACGUCCUCAACCUCCAAUGCAUCCCACCACAUGAUGAUGCCUGAAGAGCGUUUGUUUUUUG [C12A C124G G127U],1.3
16,GACCAAUCUGCACUCAGAGCUCGAGAACAUCUUCGGAUGCAUAGGAGGCAGGCUUCGGUAGCGCGAUAGCGCCAACGUCCUCAACCACCAAUGCAUCCCACCACAUGAUGAUACCUGAAGAGCCUUGGUUUUUUG [C12A G42U G60A U87A G113A],-4.01
17,GACCAAUCUGCACUCAGAGCUCGAGAACAUCUUCGGAUGCAGAGGAAGCAGGCUUCGGUGGCGCGAUAGCGGCAACGUCCUCAACCUCCAAUACAUCCCACCACAUGAUGAUGCCUGAAGAGCCUUGGUUUUUUU [C12A G47A C72G G93A G135U],-4.39
18,GACCAAUCUGCACUCAGAGCUCGAGAACAUCUUCGCAUGCAGAGGAGGCAGGCUGCGGUGGCGCGAUAGCGUCAACGUCCUCAACCUCCAAUGCAGCCCACCACAUGAUGAUGCCUGAAGAGCCUUGGUUUUUUG [C12A G36C U55G C72U U96G],-4.76
19,GACCAAUCUGCACUCAGAGCUCGAGAACAUCUUCGGAUGCAGAGGAGGCAGGCUUCGGUGGCGCGAUAGCGCCAACGUCCUCAACCUCCAAUGCAUCCCACCACAUGAUGAUGCCUGAAGAGUCUUGCUUUUUUG [C12A C123U G128C],0.474
20,GACCAAUCUGCACUCAGAUCUCGAGAACAUCUUCGGAUGCAGAGGAGGCAGGCUUCGGUGGCGCGAUAGCGCCAACGUGCUCAACCUCCAAUGCAUCCCACCACAUGAUGAUGCCUGAAGAGCCUUGGUUUUUUG [C12A G19U C79G],-5.7
21,GACCAAUCUGCACUCAGAUCUCGAGAACAUCUUCGGAUGGAGAGGAGGCAGGCUUCGGUGGCGCGAUAGCGCCAACGUCCUCAACCUCUAAUGCAUCCCACAACAUGAUGACGACUGAAGAGCCUUGGUUUUUUG [C12A G19U C40G C89U C102A U112C C114A],-2.47

row,Variant,polymerase ribozyme fitness (log ratio)
1,GACCAAUCUGCACUCAGAGCUCGAGAACAUCUUCGGAUGCAGAGGAGGCAGGCUUCGGUGGCGCGAUAGCGCCAACGUCCUCAACCUCAAAUGCAUCCCACCACAUGAUGAUGCCUGAAGAGCCUUGGUUUUUUG [C12A C89A],-1.87
2,GACCAAUCUGCACUCAGAGCUCGAGAACAUCUUCGGAUGCAGAGGAGGCAGGCUUCGGUGGCGCGAUAGCGCCAACGUCCUCAACCUCCAAUGCAUCCCACCACAUGAUGAUGCCUGAAGAGUCUUGGUUUUUUG [C12A C123U],0.76
3,GACCAAUCUGCACUCAGAGCUCGAGAACAUCUUCGGAUGCACAGGAGGCAGGCUUCGGUGGCGCGAUAUCGCCAACGUCUUCAACCUCCAAUGCAUCCCACCACAUGAUGAUGCCUGAAGAGCCUUGGUUUUUUG [C12A G42C G69U C80U],-1.06
4,GACCAAUCUGCACUCAGAGCUCGAGAACAUCUUCGUAUGCAGAGGAGACAGGCUUCGGUGGCCCGAUAGCGCCAACGUCCUCAACCUCCAAUGCAUCCCACCACAUGAUGAUGCCUGAAGAGACUUGGUUUUUUG [C12A G36U G48A G63C C123A],-0.6
5,GACCAAUCUGCACUCAGAGCUCGAGAACAUCUUCGGAUGCAGAGGAGGCAGGCUUCGGUGGCGCGAUAGCGCCAACGUCCUCAACCUCGAAUGCAUCCCACCACAUGAUGAUGACUGAAGAGCCUUGGUUUUUUG [C12A C89G C114A],-4.11
6,GACCAAUCUGCACUCAGAGCUCGAGAACAUCUUCGCAUGCAGAGGAGGCAGGCUUCGGUAGCGCGAUAGCGCCAACGUCCUCAACCUCCAAUGCAUCCCACCACAUGAUGAUGCCUGAAGAGCCUUGGUUUUUUG [C12A G36C G60A],-1.66
7,GACCAAUCUGCACUCAGAGCUCGAGAACAUCUUCGGAUGCAGAGGAGGCAGGCUUCGGUGGCGCGAUAGCGCCAACGUCCUCAACCUCCAAUGCAUCCCACUACAUGAUGAUGCCUGAAGAGCCUUGGUUUUUUG [C12A C102U],-2.56
8,GACCAAUCUGCACUCAAAGCUCGAGAACAUCUUCGGAUGCAGAGGAGGCAGGCUUCGGUGUCGCGAUAGCGCCAACGUCCUCAACCUCCAAUGCAUCCCACCACAUGAUGAUGCCUGAAGAGCCUUGGUUUUUUG [C12A G17A G61U],-4.75
9,GACCAAUCUGCACUCAGAGCUCGAGAACAUCUUCGAAUGCAGAGGAGGCAGGCAUCCGUGGCGCGAUAGCGCCAACGUCCUCAACCUCCAAUGCAUACCACCACAUGAUGAUGCCUGAAGAGCCUUGGUUUUUUG [C12A G36A U54A G57C C97A],-4.92
10,GACCAAUCUGCACUCAUAGCUCGAGAACAUCUUCGGAUGCAGAGGAGGCAGGCUUCGGUGGCGCGAUAGCGCCAACGUCCUCAACCUCCAAUGCAUCCCACCACAUGAUGAUGCCUGAAGAGCCUUGGUUUUUUG [C12A G17U],-3.81
11,GACCAAUCUGCACUCAAAGCUCGAGAACAUCUUCGGAUGCAGAGGAGGCAGGCUUCGGUGGCGCGAUAGCGCCAACGUCCUCAACCUCCAAUGCAUCCCACCACAUGAUGAUGCCUGAAGAGCCUUGGUUUUUUG [C12A G17A],-4.31
12,GACCAAUCUGCACUCAGAGCUCGAGAACAUCUUCGGAUGCAAAGGAGGCAGGCUUCGGUGGCGCGAUAGCGCCAACGUCCUCAACCUCCAAUGCAUCCCACCACAUGAUGAUGCCUGAAGAGCCUUGGUUUUUUG [C12A G42A],-1.63
13,GACCAAUCUGCACUCAGAGCUCGAGAACAUCUUCGAAUGCAGAGGAGGCAGGCUUCGGUGACGCGAUAGCGCCAACGUCCUCAACCUCCAAAGCAUCCCACCACAUGAUGAUGCCUGAAGAGUCUUGGUUUUUUG [C12A G36A G61A U92A C123U],-3.77
14,GACCAAUCUGCACUCAGAGCUCGAGAACAUCUUCGGAUGCAGAGGAGGCAGGCUUCGGUGGCGCGAUAGCGCCAACGUCCUCAACCUCCAAUGCAUCCCACCACAUGAUGAUGCCUGAAGAGCAUUGGUUUUUUG [C12A C124A],1.83
15,GACCAAUCUGCACUCAGAGCUCGAGAACAUCUUCGGAUGCAGAGGAGGCAGGCUUCGGUGGCGCGAUAGCGCCAACGUCCUCAACCUCCAAUGCAUCCCACCACAUGAUGAUGCCUGAAGAGCGUUGGUUUUUUG [C12A C124G],1.95
16,GACCAAUCUGCACUCAGAGCUCGAGAACAUCUUCGGAUGCAGAGGAGGCAGGCUUCGGUGGCGCGAUAGCGCCAACGUCCUCAACCUCCAAUGCAUCCCACCACAUGAUGAUGCCUGAAGAGCUUUGGUUUUUUG [C12A C124U],0.853
17,GACCAAUCUGCACUCAGAGCUCGAGAACAUCUUCGGAUGCAGAGAAGGCAGGCUUCGGUGGCGCGAUAGCGCCAACGUCCUCAAACUCCAAUGCAUCCCACCACAUGAUGAUGCCUGAAGAGCCUUGGUUUUUUG [C12A G45A C85A],-3.04
18,GACCAAUCUGCACUCAGAGCUCGAGAACAUCUUCGGAUGCAGAGGAGGCAGGCUUCGGUGGCGCGAUAGCGCCAACGUCCUCAACCUCCAAUGCAUCCCACCACAUGAUGAUGCUUGAAGAGCCUUGGUUUUUUG [C12A C115U],-1.21
19,GACCAAUCUGCACUCAGAGCUCGAGAACAUCUUCGGAUGCAGAGUAGGCAGGCUUCGGUGGCGCGAUAGCGCCAACGUCCUCAACCUCCAAUGCAUCCCUCCACAUGAUGAUGCCUGAAGAGCCUUGGUUUUUUG [C12A G45U A100U],-3.05
20,GACCAAUCUGCACUCAGAGCUCGAGAACAUCUUCGGAUGCAGAGGACGAAGGCUUCGGUGGCGCGAUAGCGCCAACGUCCUCAACCUCCAAUGCAUCCCACCACAUGAUGAUGCCUGAAGAGCCAUGGUUUUUUG [C12A G47C C49A U125A],-2.88
21,GACCAAUCUGCACUCAGAGCUCGAGAACAUCUUCGGAUGCAGAGGAGGCAGGCUUCGGUGGCGCGAUAGCGCCAACGUCCUCAACCUCCAAUGCAUCCCAUCACAUGAUGAUGCCUGAAGAGCCUUGGUUUUUUG [C12A C101U],-0.736

# — the RNAGym collection of RNA variant scans (doi:10.1073/pnas.2313332121)
